The text below walks through data of patent US20210380699A1 (published 2021).

The target of assay [1] is T1, Human PD-L1 expressed on cells (human, UniProt Q9NZQ7 19-290).
T1 construct: One entry used for transfected and natively expressing cells; also called CHO-S hPD-L1; CHO human PD-L1
Kind of assay: flow cytometry on CHO hPD-L1 cells, competitor biotin-CD80-Fc, n = 2. How it is done:
(§1) 150 μL FACS buffer is added and cells washed as described above. […] Cells are incubated at 4° C. for 60 minutes. Cells are washed twice with 150 μL FACS buffer, centrifuging at 300 g for 3 minutes after each wash step and aspirating supernatant. Cells are fixed, washed and resuspended for analysis as above. APC signal intensity (geometric mean) is measured by flow cytometry using a Beckman Coulter CYTOFLEX instrument. Data is plotted as percentage of receptor binding.
(§2) All other steps are performed as per plate 2.

The target in assay [2] is T1, Human PD-L1 expressed on cells. Kind of assay: flow cytometry on CHO hPD-L1 cells, competitor biotin-PD-1-Fc, n = 1. How it is done:
as §1
In general terms: A flow cytometer gives signals particle by particle.

The target is the same in assay [3]. Kind of assay: cell-based or functional assay.
Assay [4] concerns the target T2, Human PD-L1 His (human PD-L1 ECD with C-terminal His tag) (human, UniProt Q9NZQ7 19-238).
T2 construct: Biotinylated in ELISA and AlphaScreen assays; also called hPD-L1-his; biotinylated PD-L1 his
The assay can be described thus: SPR 37C, antibody captured, PD-L1 analyte.

For assay [5], the target named is T3, Cyno PD-L1 FLAG (cynomolgus PD-L1 ECD with FLAG tag) (cynomolgus monkey).
T3 construct: also called cynomolgus monkey PD-L1-FLAG
The assay can be described thus: SPR 37C, antibody captured, PD-L1 analyte.

The target of assay [6] is T2, Human PD-L1 His (human PD-L1 ECD with …). The assay can be described thus: ELISA, biotin-PD-L1 to plate-bound PD-1, antibody titrated. How it is done:
(§3) Excess protein was removed by washing with PBS-Tween (0.1% v/v) and the wells were blocked with 1% w/v bovine serum albumin (BSA, Sigma) in PBS for 1 hour at room temperature, after which plates were washed with PBS-Tween as above. 60 μL of a titration (three-fold serial dilution) of antibody was added to a 96-well, non-binding plate diluted in ELISA assay buffer (PBS +0.1% BSA). […] The plate was incubated for 30 minutes before transferring 50 μL to the coated plates. The coated plates were incubated for 1 hour at room temperature. Excess protein was removed by washing with PBS-Tween (0.1% v/v). PD-L1 binding was detected using streptavidin labelled europium (Perkin Elmer) diluted 1/1000 in DELFIA assay buffer (Perkin Elmer). The plates were washed with TBS (Tris buffered saline)-Tween (0.1% v/v) and 50 μL/well of DELFIA Enhancement solution (Perkin Elmer) was added to the plate. Time-resolved fluorescence was measured at 615 nm on an Envision plate reader (PerkinElmer). Percentage specific binding was calculated as defined in Equation 3. IC50 values were determined using GraphPad Prism software by curve fitting using a four-parameter logistic equation (Equation 4). Values for KM121 antibodies are a mean of three independent experiments. Values for KM122 are from a single experiment.
In general terms: ELISA stands for enzyme-linked immunosorbent assay.

Assay [7] has the same target. Kind of assay: ELISA, biotin-PD-L1 to plate-bound CD80, antibody titrated. How it is done:
as §3

Assay [8] has as its target T1, Human PD-L1 expressed on cells. Kind of assay: cell-based or functional assay. The source holds these as a separate data set.
Another assay has as its target T4, Mouse PD-L1 ECD His (mouse, UniProt Q9EP73 19-239).
T4 construct: also called mouse PD-L1 (his-tagged)
Kind of assay: SPR 25C and 37C.

The target in assay [9] is T1, Human PD-L1 expressed on cells. The assay can be described thus: flow cytometry on CHO hPD-L1 cells, competitor biotin-CD80-Fc, n = 1. How it is done: as §1, §2
Assay [10] shares this target. Kind of assay: cell-based or functional assay. This is another data set of the same source.
Assay [11] shares this target. Kind of assay: flow cytometry on CHO hPD-L1 cells, competitor biotin-PD-1-Fc, n = 2. How it is done: as §1
Assay [12] concerns the target T2, Human PD-L1 His (human PD-L1 ECD with …). The assay can be described thus: SPR 25C, antibody captured, PD-L1 analyte. How it is done: (§4) Label-free surface plasmon resonance (SPR) analysis was carried out on the ProteOn XPR36 (BioRad) array SPR machine. An anti-human IgG capture surface was created on a GLC biosensor chip using a combination of anti-human Fc antibodies (Jackson Labs 09-005-008,109-006-008 and 309-006-008) by amine coupling. […] The data was analysed using the 1:1 model inherent to the ProteOn XPR36 analysis software.

The target of assay [13] is T3, Cyno PD-L1 FLAG (cynomolgus PD-L1 ECD …). Kind of assay: SPR 25C, antibody captured, PD-L1 analyte. How it is done:
as §4

Assay [14] addresses T2, Human PD-L1 His (human PD-L1 ECD with …). Kind of assay: SPR 25C, antibody captured, PD-L1 analyte. How it is done: Label-free surface plasmon resonance (SPR) analysis was carried out on the ProteOn XPR36 (BioRad) array SPR machine. An anti-human IgG capture surface was created on a GLC biosensor chip using amine coupling of an anti-human IgG from GE Healthcare. […] The assay was carried out at 25° C. using HBS-EP (Teknova H8022). Buffer alone was used to reference the binding sensorgrams. The data was analysed using the 1:1 model inherent to the ProteOn XPR36 analysis software.
This is another data set of the same source.

For assay [15] the target is unchanged. Kind of assay: ELISA, biotin-PD-L1 to plate-bound CD80, antibody titrated. How it is done:
(§5) Excess protein was removed by washing with PBS-Tween (0.1% v/v) and the wells were blocked with 1% w/v bovine serum albumin (BSA, Sigma) in PBS for 1 hour at room temperature, after which plates were washed as described previously. 60 μL of a titration (three-fold dilutions from 100 nM) of antibody was added to a 96-well, non-binding plate diluted in ELISA assay buffer (PBS+0.1% BSA). […] The plate was incubated for 30 min before transferring 50 μL to the coated plates.
(§6) The coated plates were incubated for 1 hour at room temperature. Excess protein was removed by washing with PBS-Tween (0.1% v/v). PD-L1 binding was detected using streptavidin labelled Europium (Perkin Elmer) diluted 1/1000 in DELFIA assay buffer (Perkin Elmer). The plates were washed with TBS (Tris buffered saline)-Tween (0.1% v/v) and 50 μL/well of DELFIA Enhancement solution (Perkin Elmer) was added to the plate. The time-resolved fluorescence was measured at 615 nm on an Envision plate reader (PerkinElmer). Percentage specific binding was calculated as defined in Equation 3.
This is another data set of the same source.

Assay [16] has the same target. The assay can be described thus: ELISA, biotin-PD-L1 to plate-bound PD-1, antibody titrated. How it is done:
as §5, §6
This is another data set of the same source.

T1 sequence (Q9NZQ7 19-290 limits assumed): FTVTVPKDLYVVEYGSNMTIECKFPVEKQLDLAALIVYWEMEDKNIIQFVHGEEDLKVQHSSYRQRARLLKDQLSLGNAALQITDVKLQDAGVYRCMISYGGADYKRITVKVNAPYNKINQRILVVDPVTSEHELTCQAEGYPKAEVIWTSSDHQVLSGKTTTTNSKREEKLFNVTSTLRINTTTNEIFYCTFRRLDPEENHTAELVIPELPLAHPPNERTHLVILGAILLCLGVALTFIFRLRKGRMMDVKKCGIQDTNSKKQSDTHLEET
T2 sequence (Q9NZQ7 19-238 limits assumed): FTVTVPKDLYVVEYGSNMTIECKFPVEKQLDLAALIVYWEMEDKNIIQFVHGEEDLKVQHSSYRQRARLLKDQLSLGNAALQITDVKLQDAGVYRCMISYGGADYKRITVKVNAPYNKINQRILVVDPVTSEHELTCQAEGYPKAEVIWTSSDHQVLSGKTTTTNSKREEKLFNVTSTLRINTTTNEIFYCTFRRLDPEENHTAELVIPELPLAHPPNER
T3 sequence (chain, as listed by the source limits assumed): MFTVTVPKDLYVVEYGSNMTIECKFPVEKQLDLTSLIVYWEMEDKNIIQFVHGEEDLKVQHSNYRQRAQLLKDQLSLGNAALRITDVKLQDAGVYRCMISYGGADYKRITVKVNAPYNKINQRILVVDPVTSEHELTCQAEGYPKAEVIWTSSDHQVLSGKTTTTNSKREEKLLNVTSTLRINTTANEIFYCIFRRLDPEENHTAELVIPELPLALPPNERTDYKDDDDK
T4 sequence (Q9EP73 other isoform, or with tags, fused parts or gaps): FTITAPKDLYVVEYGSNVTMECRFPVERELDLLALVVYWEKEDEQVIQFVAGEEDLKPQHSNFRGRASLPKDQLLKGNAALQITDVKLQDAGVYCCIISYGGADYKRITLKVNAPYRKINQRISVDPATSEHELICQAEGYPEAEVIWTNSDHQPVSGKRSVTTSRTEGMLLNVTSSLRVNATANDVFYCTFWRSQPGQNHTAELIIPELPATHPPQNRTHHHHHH

B1: 414B06 (antibody, V domains shown)
VH: EVHLVESGGGLVQPGGSLRLSCAASGFTFSSYWMNWVRQAPGKGLEWVANIKQDGSEKYYVDSVKGRFTVSRDNAKNSLYLQMNSLRAEDTAVYYCARVRQWSDYSDYWGQGTPVTVSS
VL: DIQMTQSPSSVSASVGDRVTITCRASQGISSWLAWYQQKPGKAPKLLIYAASSLQSGVPSRFSGSGSGTDFTLTISSLQPEDFATYYCQQANSFPFTFGPGTKVDIKR
notes: also called 414606
The molecule B1 displayed an IC50 in assay [1] of 1.22 nM. In addition, the IC50 in assay [2] was 0.95 nM. In [3], the “EC50, ADCC reporter assay, n = 1” value is 0.0191 nM; the “EC50, ADCC reporter assay, n = 2” value was 0.015 nM; the “EC50, ADCC reporter assay, n = 3” value came out at 0.0242 nM; the “max fold induction, ADCC reporter assay, n = 1” value worked out at 10.9 fold. Also, in assay [3], the “max fold induction, ADCC reporter assay, n = 2” value worked out at 20.1 fold and the “max fold induction, ADCC reporter assay, n = 3” value amounted to 31.5 fold. The molecule further came in with a Kd in [4] of 0.778 nM. In [5], the Kd amounted to 0.794 nM. This molecule showed an IC50 in [6] of 1.84 nM. The same molecule had a 50% inhibitory concentration (IC50) in assay [7] of 1 nM. Besides, in assay [8], the “EC50, IL-2 induction, murine T cell hybridoma assay, n = 1” value is 0.59 nM; the “EC50, IL-2 induction, murine T cell hybridoma assay, n = 2” value was found to be 0.3 nM; the “EC50, IL-2 induction, murine T cell hybridoma assay, n = 3” value was found to be 0.18 nM. In addition, the binding result with Mouse PD-L1 ECD His is “no binding”. This molecule also showed an IC50 in assay [9] of 1.26 nM. Besides, in assay [10], the “mean EC50, IFNγ induction, monocyte-T cell co-culture” value was 0.012 nM and the “mean fold increase IFNγ, monocyte-T cell co-culture” value is 3.33 fold. Further, the IC50 in assay [11] is 1.22 nM. In addition, the Kd in assay [12] came out at 0.172 nM. The Kd in [13] turned out to be 0.192 nM.

B2: 1D05 (control antibody of Examples 14 and 15, constant region not stated) (antibody, V domains shown)
VH: EVQLVESGGGLVQPGRSLRLSCAASGFTFDDYAMHWVRQVPGKGLEWVSGISWIRTGIGYADSVKGRFTIFRDNAKNSLYLQMNSLRAEDTALYYCAKDMKGSGTYGGWFDTWGQGTLVTVSS
VL: not shown
notes: Unfused 1D05 run beside the immunocytokines; also called wild type antibody
In turn, B2 returned a Kd in assay [14] of 0.171 nM. Moreover, the IC50 in [15] turned out to be 0.882 nM; in assay [16], 1.41 nM.

The IC50 is the concentration at which inhibition is half-maximal. A lower IC50 goes with inhibition by little substance. Broadly, the Kd is the free concentration of one partner at which half of the binding sites on the other are occupied at equilibrium, for simple one-to-one binding.
